Laboratory results taken from paper PMC3485628, “Perlecan domain 1 recombinant proteoglycan augments BMP-2 activity and osteogenesis” (BMC Biotechnology, 2012).

Molecular target: T1, recombinant human perlecan domain 1 proteoglycan rhPln.247 (human, UniProt P98160 22-247, heparan sulfate and chondroitin sulfate glycosaminoglycan chains (CS:HS ratio of approximately 2:1); attachment residues not given)
T1 construct: signal peptide in the construct; The secreted product has probably lost the signal peptide; also called rhPln.D1; rPlnD1; source: HEK 293 cells, adenoviral expression system, purified
Test: ELISA; rhPln.247 coated directly on polystyrene microtiter wells overnight at 4°C in PBS/N3 at about 1-2 ug/ml; rhBMP-2 or rhBMP-7 serially diluted; retained BMP detected with biotinylated anti-BMP antibodies; background without rhPln.247 subtracted; apparent Kd
Conditions: both partners purified

T1 sequence (P98160 22-247): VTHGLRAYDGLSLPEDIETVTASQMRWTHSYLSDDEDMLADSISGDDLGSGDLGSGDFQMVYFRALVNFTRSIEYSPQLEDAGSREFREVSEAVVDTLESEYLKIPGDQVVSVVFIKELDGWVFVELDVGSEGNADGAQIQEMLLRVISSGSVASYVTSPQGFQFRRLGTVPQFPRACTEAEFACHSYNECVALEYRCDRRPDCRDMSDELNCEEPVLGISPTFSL

B1: recombinant human bone morphogenetic protein-7 (ligand)
chain: STGSKQRSQNRSKTPKNQEALRMANVAENSSSDQRQACKKHELYVSFRDLGWQDWIIAPEGYAAYYCEGECAFPLNSYMNATNHAIVQTLVHFINPETVPKPCCAPTQLNAISVLYFDDSSNVILKKYRNMVVRACGCH
notes: bone morphogenetic protein 7, human, recombinant; also called rhBMP-7; rBMP-7; source: bought: R&D Systems
  fold by which rhBMP-2 binds more tightly than rhBMP-7: ~10 fold
